Measurements reported in the nanobody polyreactivity screen of Harvey et al. (2022).

Test: yeast display, Sf9 membrane polyspecificity reagent, FACS + sequencing; frameworks hold sequencing errors
Outline: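 Nanobodies from a synthetic yeast display library (Saccharomyces cerevisiae BJ5465), induced 36–48 hours with galactose, were stained 1 hour at 4 °C with 10% biotinylated, detergent-solubilized Sf9 membrane reagent, enriched on streptavidin microbeads, then FACS-sorted. Anti-HA (expression) and streptavidin (reagent binding) fluorescence set low and high (top ~1%) gates. Polyreactivity labels come from the gate of origin. Genes were colony-PCR amplified, MiSeq 2 × 250 sequenced and filtered by CDR length.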

Sequence | polyreactivity (PSR sort gate)
QVQLVESGGGLVQAGGSLRLSCAASGITFSDNTMGWYRQAPGKERELVAAISWRGGLTYYADSVKGRFTISRDNAKNTVYLQMNSVKPEDTAVYYCIAVTSSKARYSSYDYWGQGTQVTVSS | high polyreactivity
QVQLVESGGGLVQAGGSLRLSCAASGITFSFYTMGWYRQAPGKERELVAAMTQDGGSTYYADSVKGRFTISRDNAKNTVYLQMNSLKPEDTAVYYCASDLVVFVQFDVAVDYYYWGQGTQVTVSS | low polyreactivity
QVQLVESGGGLVQAGGSLRLSCAASGITFSHNAMGWYRQAPGKERELVAVIRWSGGRTYYADSVKGRFTISRDNAKNTVYLQMNSLKPEDTAVYYCAARPSTAFPYGKIMDYWGQGTQVTVSS | low polyreactivity
QVQLVESGGGLVQAGGSLRLSCAASGITFSNSAMGWYRQAPGKERELVASITRRGTRTYYADSVKGRFTISRDNAKNTVYLQMNSLKPEDTAVYYCNRSFYSWIDLIYGGYDYWGQGTQVTVSS | high polyreactivity
QVQLVESGGGLVQAGGSLRLSCAASGITFSRNAMGWYRQAPGTDRELGAVISTRGGRTYYADSVKGRFTISRDNAKNTVYLQMNSLKPEDTAVYYCAASPDPYWRRMDYWGQGTQVTVSS | high polyreactivity
QVQLVESGGGLVQAGGSLRLSCAASGITFSRYAMGWYRQAPGKERELVAAISSGGSTYYADSVKGRFTISRDNAKNPVYLQMNSLKPEDTAVYYCAAVILSRWASYREYYYWGQGTQVTGSS | high polyreactivity
QVQLVESGGGLVQAGGSLRLSCAASGITFSSYAMGWYRQAPGKERELVAAISYGGGNTYYADSVKGRFTISRDNAKNTVYLQMNSLKPEDTAVYYCNTLYTSYSGLDYWGQGTQVTVSS | high polyreactivity
QVQLVESGGGLVQAGGSLRLSCAASGITFSTYAMGWYRQAPGKERELVAAINWSGGSTRYADSVKGRFTISRDNAKNTVYLQMNSLKPEDTAVYYCAAEVQGQVGEFDYWGQGTQVTVSS | low polyreactivity
QVQLVESGGGLVQAGGSLRLSCAASGITFSVYAMGWYRQAPGKERELVAAISGSGGSTYYADSVKGRFTISRDNAKNTVYLQMNSLKPEDTAVYYCAARLAQKYSPTRYNYWGQGTQVTVSS | high polyreactivity
QVQLVESGGGLVQAGGSLRLSCAASGITFSVYAMGWYRQAPGKERELVASISSGGTSTYYADSVKGRFTISRDNAKNTVYLQMNSLKPEDTAVYYCAAYSYYTGDQYSYDYWGQGTQVTVSS | low polyreactivity
QVQLVESGGGLVQAGGSLRLSCAASGITFSYYAMGWYRQAPGKEREFVAAINWDGGSTYYADSVKGRFTISRDNAKNTVYLQMNSLKPEDTAVYYCNADEFEYIYVDTLNYGDDYWGQGTQVTVSS | low polyreactivity
QVQLVESGGGLVQAGGSLRLSCAASGITFTAYAMGWYRQAPGKERELVATINSTGITNYADSVKGRFTISRDNAKNTVYLQMNSLNPEDTAVYYCAADLLDISSYDGMDYWGQGTQVTVSS | low polyreactivity
QVQLVESGGGLVQAGGSLRLSCAASGITFTDYAMGWYRQAPGKERELVAAISGIGSTTYYADSVKGRFTISRDNAKNTVYLQMNSLKPEDTAVYYCNALLAYTYWYDYWGQGTQLTVSS | high polyreactivity
QVQLVESGGGLVQAGGSLRLSCAASGITFTDYAMGWYRQAPGKERELVAAISSSGGRTYYADSVKGRFTISRDNAKNTVYLQMNSLKPEDTAVYYCAARDYDRTQSGRDYWGQGTQVTVSS | high polyreactivity
QVQLVESGGGLVQAGGSLRLSCAASGITFTENLMGWYRQAPGKERELVAGISRSGGITYFADSVKGRFTISRDNAKNTVYLQMNSLKPEDTSVYYCAADFYASYSPYYYWGQGTQVTVSS | high polyreactivity
QVQLVESGGGLVQAGGSLRLSCAASGITFTFNAMGWYRQAPGKERELVAAISSTTSTKYADSVKGRFTISRDNAKTTVYLQMNSLKPEDTAVYYCARTYWLRYYGYRDDEYDYWGQGTQVTVSS | low polyreactivity
QVQLVESGGGLVQAGGSLRLSCAASGITFTFNAMGWYRQAPGKERELVAAITWSGGSTFYADSVKGRFTISRDNAKNTVDLQMNSLKPEDTAVYYCARDTELYVRWLDYWGQGTQVTVSS | low polyreactivity
QVQLVESGGGLVQAGGSLRLSCAASGITFTFNAMGWYRQAPGKERELVAAITWSGGSTFYADSVKGRFTISRDNAKNTVYLQMNSLKPEDTAVYYCARDTELYVRWLDYWGQGTQVSVSS | low polyreactivity
QVQLVESGGGLVQAGGSLRLSCAASGITFTFYAMGWYRQAPGKERELVATIDSGGSTNYADSVKGRFTISRDNAKNTVYLQMNSLKPEDTEVYYCAADGVWYYYDMDYWGQGTQVTVSS | low polyreactivity
QVQLVESGGGLVQAGGSLRLSCAASGITFTGYAMGWYRQAPGKERELVAAITSGGGRTYYADSVKGRFTISRDNAKNTVYLQMNSLKPEDTAVYYCAFRYHGYDYWGQGTQVTVSS | high polyreactivity
QVQLVESGGGLVQAGGSLRLSCAASGITFTPNAMGWYRPAPGKEREFVAAITYSGGSTYYADSVKGRFTISRDNAKNTVYLQMNSLKPEDTAVYYCAAVYYLLYYEAYYYWGQGTQVTVSS | low polyreactivity

Sequence | polyreactivity (PSR sort gate)
QVQLVESGGGLVQAGGSLRLSCAASGITFTPYALGWSRPAPGKERELVAAISASGGNTYYADSVKGRFTISRDNAKNTVYLQMNSLKPDDTAVYYCAAVVAFATGTYYYWGQGTQVTVSS | high polyreactivity
QVQLVESGGGLVQAGGSLRLSCAASGITFTRNVMGWYRQAPGKERELVAAISGSGGSTYYADSVKGRFTISRDNAKNTVYLQMNSLKPEDTAVYYCAARSRGGRRYDYWGQGTQVTVSS | high polyreactivity
QVQLVESGGGLVQAGGSLRLSCAASGITFTRYAMGWYRQAPGKEMEFVAAIRRSGGNTYYADSVKGRFTISRDNAKNTVYLQMNSLKPEDTAVYYCAASFRKTSPTRLVDYWGQGTQVTVSS | low polyreactivity
QVQLVESGGGLVQAGGSLRLSCAASGITFTSYAMGWYRQAPGKERELVAAISSSGVRTYYADSVKGRFTISRDNAKNTVYLQMNSLKPEDTAVYYCATRRRVLNCYDYWGQGTQVTVSS | high polyreactivity
QVQLVESGGGLVQAGGSLRLSCAASGITFTYYVMGWYRQAPGKERELVAAITWRGGRTRYADSVKGRFTISRDNAKNTVYLQMNSLKPEDTAVYYCAADLHQRRYYYWGQGTQVTVSS | high polyreactivity
QVQLVESGGGLVQAGGSLRLSCAASGITFVANAMGWYRQAPGKERELVAGITQTGGSTYYADSVKGRFTISRDNAKNTVYLQMNSLKPEDTAVYYCAATYRRLRYGKLLYYWGQGTQVTVSS | high polyreactivity
QVQLVESGGGLVQAGGSLRLSCAASGITFVDYAMGWYRQAPGKERELVAAITTGGSTNYADSVKGRFTISRDNAKNTVYLQMNSLKPEDTAVYYCNKRPVILYDYWGQGTQVTVSS | low polyreactivity
QVQLVESGGGLVQAGGSLRLSCAASGITFVFNAMGWYRQAPGKERELVASITIGGNTYYADSVKGRFTISRDNAKNTVYLQMNSLKPEDSAVYYCAADIARSVRFYYWGQGTQVTVSS | low polyreactivity
QVQLVESGGGLVQAGGSLRLSCAASGITFVFYAMGRYRPAPGKERELVAAISSSGGSTYYADSVKGRFTISRDNAKNTVYLQMNSLKAEDTAVYYCNAKVFSYQGAVRYDYWGQGTQVTVSS | high polyreactivity
QVQLVESGGGLVQAGGSLRLSCAASGITFVFYTMGWYRQAPGKERELVAAISRSGASTYYADSVKGRFTISRDNAKNTVYLQMNSLKPEDTAVYYCAADRGYRFRMDYWGQGTQVTVSS | high polyreactivity
QVQLVESGGGLVQAGGSLRLSCAASGITFVHYAMGWYRQAPGKEREFVAAITKGGGSTSYADSVKGRFTISRDNAKNTVYLQMNSLKPEDTAVYYCAATYYAYGFSISYYYWGQGTQVTVSS | high polyreactivity
QVQLVESGGGLVQAGGSLRLSCAASGITFVHYAMGWYRQAPGKERELVASITRRGGSTYYADSVKGRFTISRDNAKNTVYLQMHSLKPEDTAVYYCAARWSAWSGYIFDYWGQGTQVTVSS | high polyreactivity
QVQLVESGGGLVQAGGSLRLSCAASGITFVNNAMGWYRQAPGKEREFVAAISWSGGNTYYADSVKGRFTISRDNAKNTVYLQMISLKPEDTAVYYCSGYISRSRFRFYYWGQGTQVTVSS | low polyreactivity
QVQLVESGGGLVQAGGSLRLSCAASGITFVNYAMGWYRQAPGKERELVAAITSGGNTYYADSVKGRFTISRDNAKNTVYLQMNSLKPEDTAVYYCAAKWFYGKPYRGYYYWGQGTQVTVSS | high polyreactivity
QVQLVESGGGLVQAGGSLRLSCAASGITFVRYAKGWYRHAPGKEREFVARISRSGASTYYADSVKGRFTISRDNAKNTVYLQMNSLKPEDTAVYYCNAVPGGSRFDYWGQGTQVTVSS | high polyreactivity
QVQLVESGGGLVQAGGSLRLSCAASGITFVRYAMGWYRQAPGKERELVAVISRGGITNYADSVKGRFTISRDNAKNTVYLQMNSMKPEDTAVYYCAVRGRSYVRTYDYWGQGTQVTVSS | high polyreactivity
QVQLVESGGGLVQAGGSLRLSCAASGITFVSNVMGWYRQAPGKEREFVAAINVSGDSTTYADSVKGRFTISRDNAKNTVYLQRNSLKPEDTAVYYCAAEYNFPEFPWGGEYDYWGQGTQVTVSS | low polyreactivity
QVQLVESGGGLVQAGGSLRLSCAASGITFVYYAMGWYRQAPGKERELVASISSADNTHYADSVKGRFTISRDNAKNTVYLQMNSQKPEDTAVYYCAADYWWNLRHYSTGGYWGQGTQVTVSS | low polyreactivity
QVQLVESGGGLVQAGGSLRLSCAASGITFWDYAMGWYRQAPGTERELVAANSRSGGSTYYADSVKGRFTISRDNAKKTVYLQMNSLKPEDTAVYFCAAYTRRPIYDYWGQGTQVTVSS | high polyreactivity
QVQLVESGGGLVQAGGSLRLSCAASGITFWGYAMGWYRQAPGKEREFVARINWSGGRTYYAESVKGRFTISRDNAKKTVYLQMNSLKPEDTAVYYCAATSRIYGYRTYDDWGQGTQVTVSS | high polyreactivity
